PMC6031666

Test system: His51
Experiment: NMR
Conditions: 298 K; 100 mM NaCl, 5 mM CaCl2; 20 mM deuterated MES (pH 5.5, 6.0, 6.5, 7.2, 8.5) or 20 mM deuterated Tris (pH 8.5), 0.02% NaN3; Inhibitor-bound (Bz-Nle-Lys-Arg-Arg-B(OH)2, a tetrahedral transition-state mimic), NS2B-bound, folded. Two complex forms are in equilibrium.

“NS3 serine protease domain (NS3pro) in complex with NS2B cofactor segment (Dengue virus type 2 (DENV2))” was tested, and the pKa was “remain fully protonated over the investigated pH range (5.5–8.5)”.
